Holding throughout (assay): GC-MS of (Z)-3-hexenol formed, Michaelis-Menten fit
Common to all, as to type: biochemical, Arabidopsis thaliana
What all share (conditions): 50 mM Tris-HCl pH 7.5, 30 °C, 10 min, 0.5 µM enzyme

Substrate in data set [1]: CC/C=C\CCOC(=O)CCC
From the text:
(§1) GC-MS of (Z)-3-hexenol formed, Michaelis-Menten fit on AtCXE5

Substrate in data set [2]: CC/C=C\CCOC(=O)CC
Description: as §1

Substrate in data set [3]: CC/C=C\CCOC(C)=O
Description: as §1

Substrate in data set [4]: CC/C=C\CCOC(=O)CCC
From the text:
(§2) GC-MS of (Z)-3-hexenol formed, Michaelis-Menten fit on AtCXE12
This is another data set of the same source.

Substrate in data set [5]: CC/C=C\CCOC(=O)CC
Description: as §2
This is another data set of the same source.

Substrate in data set [6]: CC/C=C\CCOC(C)=O
Description: as §2
This is another data set of the same source.

Consider 2 proteins from publication PMC11986948, “The carboxylesterase AtCXE12 converts volatile (Z)-3-hexenyl acetate to (Z)-3-hexenol in Arabidopsis leaves” (Plant Physiology, 2025).

In general, Km refers to the substrate concentration at which the rate is half of its maximum. A word on the kcat: it is the number of substrate molecules converted per active site and unit of time at saturation. Broadly, the kcat/Km is the turnover number divided by the Michaelis constant.

B1: AtCXE5 (Arabidopsis thaliana) (protein)
chain: MESEIASEFLPFCRIYKDGRVERLIGTDTIPASLDPTYDVVSKDVIYSPENNLSVRLFLPHKSTKLTAGNKLPLLIYIHGGAWIIESPFSPLYHNYLTEVVKSANCLAVSVQYRRAPEDPVPAAYEDVWSAIQWIFAHSNGSGPVDWINKHADFGKVFLGGDSAGGNISHHMAMKAGKEKKLDLKIKGIAVVHPAFWGTDPVDEYDVQDKETRSGIAEIWEKIASPNSVNGTDDPLFNVNGSGSDFSGLGCDKVLVAVAGKDVFVRQGLAYAAKLEKCEWEGTVEVVEEEGEDHVFHLQNPKSDKALKFLKKFVEFIIG
With B1, in data set [1], the Km was found to be 240 ± 30 µM, the kcat is 0.16 s⁻¹ and the kcat/Km was 650 M⁻¹ s⁻¹. In data set [2], the Km came to 1450 ± 190 µM, the kcat stood at 0.3 s⁻¹ and the kcat/Km was found to be 210 M⁻¹ s⁻¹. Also, in data set [3], the Km stood at 8630 ± 1280 µM, the kcat came out at 3.17 s⁻¹ and the kcat/Km came out at 380 M⁻¹ s⁻¹.

B2: AtCXE12 (Arabidopsis thaliana) (protein)
chain: MDSEIAVDCSPLLKIYKSGRIERLMGEATVPPSSEPQNGVVSKDVVYSADNNLSVRIYLPEKAAAETDSKLPLLVYFHGGGFIIETAFSPTYHTFLTTSVSASNCVAVSVDYRRAPEHPISVPFDDSWTALKWVFTHITGSGQEDWLNKHADFSRVFLSGDSAGANIVHHMAMRAAKEKLSPGLNDTGISGIILLHPYFWSKTPIDEKDTKDETLRMKIEAFWMMASPNSKDGTDDPLLNVVQSESVDLSGLGCGKVLVMVAEKDALVRQGWGYAAKLEKSGWKGEVEVVESEGEDHVFHLLKPECDNAIEVMHKFSGFIKGGN
For B2, in data set [4], the Km worked out at 460 ± 50 µM, the kcat was 0.85 s⁻¹ and the kcat/Km was 1860 M⁻¹ s⁻¹. In data set [5], the Km was 2260 ± 340 µM, the kcat was determined as 2.25 s⁻¹ and the specificity constant (kcat/Km) stood at 990 M⁻¹ s⁻¹. For the same protein, in data set [6], the Km is 5940 ± 840 µM, the kcat stood at 3.78 s⁻¹ and the kcat/Km worked out at 640 M⁻¹ s⁻¹.
